Laboratory results: the supplement of paper PMC7877785
± gives the uncertainty stated by the source.

Test: self-splicing fitness, log relative to wild type (ln ratio); higher = more splicing; Tetrahymena group I intron in knt gene, E. coli kanamycin selection, DiMSum; sequences stand for … in CUCUCU…GGAGGGAAAAGUUAUCAGGCAUGCACCUGGUAGCUAGUCUUUAAACCAAUAGAUUGCAUCGGUUUAAAAGGCAAGACCGUCAAAUUGCGGGAAAGGGGUCAACAGCCGUUCAGUACCAAGUCUCAGGGGAAACUUUGAGAUGGCCUUGCAAAGGGUAUGGUAAUAAGCUGACGGACAUGGUCCUAACCACGCAGCCAAGUCCUAAGUCAACAGAUCUUCUGUUGAUAUGGAUGCAGUUCACAGACUAAAUGUCGGUCGGGGAAGAUGUAUUCUUCUCAUAAGAUAUAGUCGGACCUCUCCUUAAUGGGAGCUAGCGGAUGAAGUGAUGCAACACUGGAGCCGCUGGGAACUAAUUUGUAUGCGAAAGUAUAUUGAUUAGUUUUGGAGUACUCGUGGUCG
Procedure, shortened: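 The eight P1ex-region nucleotides of an intron in the knt kanamycin-resistance gene on pET-22b(+) were all randomised and the library put into E. coli BL21(DE3). Six replicate transformations were grown overnight at 37°C or 30°C on LB agar with or without 25 μg/mL kanamycin, together with 100 μg/mL carbenicillin, 50 μM IPTG and 0.2% rhamnose. Colonies were pooled and amplicon-sequenced on an Illumina HiSeq 2500. Fitness from DiMSum is the error-weighted combination of wild-type-normalised replicate fold changes, kanamycin over none.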

| Sequence | self-splicing fitness (ln) (30 °C) | self-splicing fitness (ln) (37 °C) |
| --- | --- | --- |
| AGAAAGCAAUAUUACGGAAG | -2.64 ± 0.19 | -1.71 ± 0.22 |
| CGACAGCAAUAUUACGCGUA | -1.75 ± 0.28 | -1.58 ± 0.15 |
| GCGCAGCAAUAUUACGGGAU | -1.66 ± 0.1 | -1.09 ± 0.12 |
| UACAAGCAAUAUUACGCUAU | -3.38 ± 0.13 | -1.83 ± 0.11 |
| CUCUAGCAAUAUUACGGAAU | -3.43 ± 0.26 | -3.25 ± 0.3 |
| ACCGAGCAAUAUUACGUGAC | -4.19 ± 0.34 | -1.4 ± 0.15 |
| CGAUAGCAAUAUUACGGAUA | – | -0.838 ± 0.19 |
| GCCAAGCAAUAUUACGAACG | -2.71 ± 0.11 | -1.46 ± 0.13 |
| AAGAAGCAAUAUUACGGUCA | -0.625 ± 0.088 | 0.197 ± 0.1 |
| CACUAGCAAUAUUACGCGCG | -1.1 ± 0.11 | -0.054 ± 0.14 |
| GUACAGCAAUAUUACGAUCU | -0.934 ± 0.087 | -0.527 ± 0.094 |
| GUAGAGCAAUAUUACGUUGG | -2.16 ± 0.11 | -2.04 ± 0.15 |
| AUUAAGCAAUAUUACGGGAA | -2.09 ± 0.26 | -1.43 ± 0.23 |
| UCAUAGCAAUAUUACGUGGU | -3.42 ± 0.16 | -2.8 ± 0.16 |
| GGCCAGCAAUAUUACGGCCG | -3.47 ± 0.22 | -3 ± 0.23 |
| AUGGAGCAAUAUUACGGGGG | -3.55 ± 0.43 | -2.21 ± 0.35 |
| CAGGAGCAAUAUUACGAAAU | -2.55 ± 0.33 | – |
| UACUAGCAAUAUUACGUACU | -2.51 ± 0.19 | -0.347 ± 0.13 |
| GCGCAGCAAUAUUACGUCAG | -2.03 ± 0.14 | -2.23 ± 0.18 |
| UGAAAGCAAUAUUACGAUAG | -1.07 ± 0.098 | -0.612 ± 0.098 |
| CUUAAGCAAUAUUACGAUUC | -4.19 ± 0.46 | -2.07 ± 0.26 |
| UGAGAGCAAUAUUACGACAA | -0.796 ± 0.32 | -1.99 ± 0.43 |
| UAUUAGCAAUAUUACGGCGU | -1.24 ± 0.18 | -0.989 ± 0.18 |
| GUAAAGCAAUAUUACGGUCU | -0.245 ± 0.071 | 0.0323 ± 0.092 |
| CCCUAGCAAUAUUACGUGCG | -2.36 ± 0.13 | -2.97 ± 0.17 |

| Sequence | self-splicing fitness (ln) (30 °C) | self-splicing fitness (ln) (37 °C) |
| --- | --- | --- |
| AUCCAGCAAUAUUACGUAUG | -3.79 ± 0.2 | -2.05 ± 0.16 |
| ACCCAGCAAUAUUACGCGGG | -3.6 ± 0.13 | -3.08 ± 0.16 |
| GUCAAGCAAUAUUACGGCAA | -2.06 ± 0.15 | -1.01 ± 0.094 |
| CCUGAGCAAUAUUACGUUUA | -3.15 ± 0.15 | -1.57 ± 0.17 |
| CCGGAGCAAUAUUACGGUGC | – | -1.63 ± 0.45 |
| GGGAAGCAAUAUUACGCAUC | -2.36 ± 0.39 | -1.77 ± 0.32 |
| AAACAGCAAUAUUACGUAGU | -1.64 ± 0.054 | -1.62 ± 0.077 |
| GCAAAGCAAUAUUACGUCUC | -1.02 ± 0.11 | -0.501 ± 0.12 |
| GAGCAGCAAUAUUACGCAUC | -3.22 ± 0.2 | -3.08 ± 0.37 |
| GGCGAGCAAUAUUACGCCGA | -2.65 ± 0.18 | -1.45 ± 0.091 |
| CUUAAGCAAUAUUACGAAUG | -0.541 ± 0.092 | -0.0976 ± 0.12 |
| UGGUAGCAAUAUUACGUAAA | -1.01 ± 0.099 | -0.497 ± 0.11 |
| CGCCAGCAAUAUUACGUACG | -1.6 ± 0.098 | -0.916 ± 0.12 |
| UGAAAGCAAUAUUACGCAGU | -3.25 ± 0.22 | -1.3 ± 0.13 |
| UCCGAGCAAUAUUACGUUAC | -3.25 ± 0.43 | -1.63 ± 0.43 |
| CUUGAGCAAUAUUACGGGAC | -3.63 ± 0.29 | -2.56 ± 0.3 |
| AGCAAGCAAUAUUACGUAAG | -2.47 ± 0.097 | -0.897 ± 0.12 |
| CCCUAGCAAUAUUACGUCGC | -3.12 ± 0.21 | -2.64 ± 0.25 |
| GUAGAGCAAUAUUACGACCU | -1.39 ± 0.15 | -0.95 ± 0.2 |
| UGGAAGCAAUAUUACGGAUU | -1.49 ± 0.08 | -1.68 ± 0.12 |
| UCGUAGCAAUAUUACGCCAU | – | -0.949 ± 0.45 |
| CCCCAGCAAUAUUACGAUGG | -3.49 ± 0.15 | -2.82 ± 0.21 |
| GCCCAGCAAUAUUACGUUGA | -1.72 ± 0.11 | -1.25 ± 0.12 |
| UACGAGCAAUAUUACGUAUC | -2.79 ± 0.16 | -2.99 ± 0.27 |
| AGUGAGCAAUAUUACGGUGC | -3.77 ± 0.27 | -1.91 ± 0.22 |

| Sequence | self-splicing fitness (ln) (30 °C) | self-splicing fitness (ln) (37 °C) |
| --- | --- | --- |
| ACACAGCAAUAUUACGGCUG | -2.88 ± 0.12 | -1.42 ± 0.1 |
| AUCCAGCAAUAUUACGUUGU | -3.92 ± 0.12 | -2.09 ± 0.093 |
| UGAAAGCAAUAUUACGAACG | 0.0634 ± 0.17 | 0.684 ± 0.2 |
| UCAGAGCAAUAUUACGGUCC | -2.18 ± 0.24 | – |
| AGUUAGCAAUAUUACGCCUA | -1.11 ± 0.16 | -0.149 ± 0.13 |
| GACCAGCAAUAUUACGCUGG | -3.16 ± 0.13 | -2.95 ± 0.21 |
| CAAAAGCAAUAUUACGCGCA | -1.05 ± 0.1 | -0.548 ± 0.1 |
| CCUCAGCAAUAUUACGAACG | -0.86 ± 0.062 | -0.285 ± 0.096 |
| GAAUAGCAAUAUUACGCGGA | -1.54 ± 0.15 | -1.43 ± 0.15 |
| AUGCAGCAAUAUUACGGUAG | -3.81 ± 0.16 | -2.4 ± 0.14 |
| AAACAGCAAUAUUACGACCC | -0.763 ± 0.11 | 0.302 ± 0.13 |
| CUAAAGCAAUAUUACGCUGG | -3.74 ± 0.22 | -2.11 ± 0.25 |
| GACUAGCAAUAUUACGAUCA | -0.805 ± 0.062 | -0.314 ± 0.077 |
| UGCCAGCAAUAUUACGAUAA | -1.88 ± 0.14 | -1.19 ± 0.15 |
| GCUAAGCAAUAUUACGCACC | -0.869 ± 0.11 | 0.0219 ± 0.14 |
| CAGGAGCAAUAUUACGGAAC | -3.67 ± 0.43 | – |
| GUCUAGCAAUAUUACGACUC | -0.625 ± 0.13 | -0.52 ± 0.15 |
| CAUAAGCAAUAUUACGCGCU | -3.52 ± 0.28 | -2.34 ± 0.2 |
| AGAAAGCAAUAUUACGGUCU | -1.11 ± 0.082 | -0.58 ± 0.09 |
| GUUAAGCAAUAUUACGACCC | – | -0.221 ± 0.44 |
| CAUGAGCAAUAUUACGUCGA | -2.57 ± 0.33 | – |
| AGGGAGCAAUAUUACGAUCA | – | -1.5 ± 0.4 |
| AAGAAGCAAUAUUACGAUCC | -0.553 ± 0.14 | -0.745 ± 0.18 |
| UGCAAGCAAUAUUACGUAUG | -3.05 ± 0.16 | -0.321 ± 0.1 |
| CCGUAGCAAUAUUACGCAGC | -3.54 ± 0.35 | -3.36 ± 0.25 |

| Sequence | self-splicing fitness (ln) (30 °C) | self-splicing fitness (ln) (37 °C) |
| --- | --- | --- |
| CACGAGCAAUAUUACGCGGG | -4.05 ± 0.26 | -2.88 ± 0.26 |
| GCAGAGCAAUAUUACGAACU | -0.968 ± 0.14 | -1.1 ± 0.19 |
| UCUCAGCAAUAUUACGGCAG | -3.36 ± 0.31 | -0.98 ± 0.19 |
| AAACAGCAAUAUUACGUCGG | -2.8 ± 0.11 | -1.13 ± 0.11 |
| UCCAAGCAAUAUUACGAAGU | -1.09 ± 0.14 | -1.57 ± 0.15 |
| UCAGAGCAAUAUUACGCGGG | -2.22 ± 0.14 | -1.99 ± 0.23 |
| GAAUAGCAAUAUUACGAAUA | -1.07 ± 0.17 | -1.57 ± 0.22 |
| UUUAAGCAAUAUUACGGAGC | -1.94 ± 0.25 | -1.43 ± 0.47 |
| CCAUAGCAAUAUUACGCCUC | -3.21 ± 0.4 | -1.74 ± 0.29 |
| UAAGAGCAAUAUUACGGGUC | – | -1.7 ± 0.41 |
| CGACAGCAAUAUUACGUUUA | -1.81 ± 0.11 | -0.394 ± 0.087 |
| UAGCAGCAAUAUUACGCGUA | -1.2 ± 0.1 | 0.478 ± 0.1 |
| GAGGAGCAAUAUUACGACGG | -3.25 ± 0.3 | -2.07 ± 0.31 |
| UCAGAGCAAUAUUACGUACC | -3.69 ± 0.25 | -1.59 ± 0.37 |
| UAAGAGCAAUAUUACGGCUU | -2.3 ± 0.2 | -1.44 ± 0.22 |
| GUCAAGCAAUAUUACGAUGC | -1.3 ± 0.098 | -0.442 ± 0.11 |
| UGGGAGCAAUAUUACGUCUG | -1.46 ± 0.12 | -0.899 ± 0.17 |
| GCACAGCAAUAUUACGUAGG | -0.466 ± 0.055 | -0.109 ± 0.069 |
| CCUGAGCAAUAUUACGAAGC | -2.38 ± 0.14 | -2.58 ± 0.3 |
| UCCCAGCAAUAUUACGAAAG | -3.84 ± 0.33 | -3.06 ± 0.17 |
| UAGUAGCAAUAUUACGUCAG | – | -0.99 ± 0.22 |
| GCGUAGCAAUAUUACGUACG | -3.93 ± 0.18 | -2.88 ± 0.17 |
| CUCGAGCAAUAUUACGACAC | -2.69 ± 0.27 | – |
| UGUCAGCAAUAUUACGCUUG | -1.09 ± 0.066 | -0.432 ± 0.089 |
